Measurements taken from CN102827282A (LIN HONG, dated 2012).

Target: T1, 重组人Trop-2蛋白 (human, UniProt P09758 27-274, limits assumed)
T1 construct: Purified recombinant protein coated on ELISA plates; also called recombinant human Trop-2 protein; 重组的Trop-2蛋白
T1 sequence (looked up): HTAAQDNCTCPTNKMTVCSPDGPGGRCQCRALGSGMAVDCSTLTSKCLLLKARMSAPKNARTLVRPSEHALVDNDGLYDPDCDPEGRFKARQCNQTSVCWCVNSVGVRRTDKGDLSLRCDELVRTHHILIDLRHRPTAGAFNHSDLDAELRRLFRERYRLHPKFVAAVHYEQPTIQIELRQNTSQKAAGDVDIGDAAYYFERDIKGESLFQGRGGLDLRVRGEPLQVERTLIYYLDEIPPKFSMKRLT
Assay: phage ELISA of single clones after five rounds of panning on recombinant human Trop-2

B1: 抗Trop-2的特异性人源Fab抗体 (Fab, V domains shown)
VH: QVQLVESGGGVVQPGRSLRLSCAASGFTFSSYGMHWVRQAPGKGLEWVAVIWYDGSNKYYADSVKGRFTISRDNSKNTLYLQMNSLRAEDTAVYYCARDPGWGFDYWGQGTLVTVSS
VL: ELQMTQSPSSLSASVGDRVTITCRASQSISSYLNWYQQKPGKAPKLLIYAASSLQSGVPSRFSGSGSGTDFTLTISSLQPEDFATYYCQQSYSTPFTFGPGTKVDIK
notes: also called 抗Trop-2抗体Fab; pComb3x-Fab
- binding result: binds
